Source: patent US20200283478A1 (Genentech, published 2020)
Bridge positions count the residues as written; N and C are the ends. * marks the point of attachment. Fmoc = O=C(OCC1c2ccccc2-c2ccccc21)*; Pentanoyl = CCCCC(=O)*

B1: Compound 113 (peptide)
peptide: Pentanoyl-WNLVRIGTTR-NH2
SMILES: CCCCC(=O)N[C@@H](Cc1c[nH]c2ccccc12)C(=O)N[C@@H](CC(N)=O)C(=O)N[C@@H](CC(C)C)C(=O)N[C@H](C(=O)N[C@@H](CCCNC(=N)N)C(=O)N[C@H](C(=O)NCC(=O)N[C@H](C(=O)N[C@H](C(=O)N[C@@H](CCCNC(=N)N)C(N)=O)[C@@H](C)O)[C@@H](C)O)[C@@H](C)CC)C(C)C
B2: Compound 114 (peptide)
peptide: Pentanoyl-WNLVRIGTLR-NH2
SMILES: CCCCC(=O)N[C@@H](Cc1c[nH]c2ccccc12)C(=O)N[C@@H](CC(N)=O)C(=O)N[C@@H](CC(C)C)C(=O)N[C@H](C(=O)N[C@@H](CCCNC(=N)N)C(=O)N[C@H](C(=O)NCC(=O)N[C@H](C(=O)N[C@@H](CC(C)C)C(=O)N[C@@H](CCCNC(=N)N)C(N)=O)[C@@H](C)O)[C@@H](C)CC)C(C)C
B3: Compound 35 (peptide)
peptide: Ac-DLMPWNLVRIGLLR-NH2
B4: Compound 54 (peptide)
peptide: Ac-DLMPWNLVRIGLLA-NH2
B5: Compound 56 (peptide)
peptide: Ac-DLMPWNLVRIGALR-NH2
B6: Compound 43 (peptide)
peptide: Ac-DLAPWNLVRIGLLR-NH2
B7: Compound 41 (peptide)
peptide: Ac-DLMPANLVRIGLLR-NH2
B8: Compound 57 (peptide)
peptide: Ac-DLMPWNLVRIALLR-NH2
B9: Compound 59 (peptide)
peptide: Ac-DLMPWNLVAIGLLR-NH2
B10: Compound 44 (peptide)
peptide: Ac-DAMPWNLVRIGLLR-NH2
B11: Compound 42 (peptide)
peptide: Ac-DLMAWNLVRIGLLR-NH2
B12: Compound 58 (peptide)
peptide: Ac-DLMPWNLVRAGLLR-NH2
B13: Compound 98 (Fmoc-GSG-CWNLKRIGSQGC-NH2) (peptide)
peptide: Fmoc-GSGCWNLKRIGSQGC-NH2
modifications: disulfide 4-15
SMILES: CC[C@H](C)[C@@H]1NC(=O)[C@H](CCCNC(=N)N)NC(=O)[C@H](CCCCN)NC(=O)[C@H](CC(C)C)NC(=O)[C@H](CC(N)=O)NC(=O)[C@H](Cc2c[nH]c3ccccc23)NC(=O)[C@@H](NC(=O)CNC(=O)[C@H](CO)NC(=O)CNC(=O)OCC2c3ccccc3-c3ccccc32)CSSC[C@@H](C(N)=O)NC(=O)CNC(=O)[C@H](CCC(N)=O)NC(=O)[C@H](CO)NC(=O)CNC1=O
B14: Compound 39 (Ac-CWNLKRIGSQGCW-NH2) (peptide)
peptide: Ac-CWNLKRIGSQGCW-NH2
modifications: disulfide 1-12
SMILES: CC[C@H](C)[C@@H]1NC(=O)[C@H](CCCNC(=N)N)NC(=O)[C@H](CCCCN)NC(=O)[C@H](CC(C)C)NC(=O)[C@H](CC(N)=O)NC(=O)[C@H](Cc2c[nH]c3ccccc23)NC(=O)[C@@H](NC(C)=O)CSSC[C@@H](C(=O)N[C@@H](Cc2c[nH]c3ccccc23)C(N)=O)NC(=O)CNC(=O)[C@H](CCC(N)=O)NC(=O)[C@H](CO)NC(=O)CNC1=O
B15: SEQ ID NO 381 (peptide)
peptide: SGHASKGMVLSG
B16: SEQ ID NO 377 (peptide)
peptide: SGAGKLDLSG
B17: SEQ ID NO 379 (peptide)
peptide: SGNALWNHDRLT
B18: SEQ ID NO 380 (peptide)
peptide: SGRNGSGYINRGIEIW
B19: SEQ ID NO 372 (peptide)
peptide: SGSYRGAWSVFGGSTD
B20: SEQ ID NO 366 (peptide)
peptide: SGPRTYLRGLVD
B21: SEQ ID NO 368 (peptide)
peptide: SGMVYVDRGVRVFT
B22: SEQ ID NO 367 (peptide)
peptide: SGNCWSSLRGICENLG
B23: SEQ ID NO 382 (peptide)
peptide: SGGSIPWNLERITPPR
B24: SEQ ID NO 370 (peptide)
peptide: SGEHQFYSYRGVDVYR
B25: SEQ ID NO 369 (peptide)
peptide: SGGCVKYRGSVSCQESKT
B26: SEQ ID NO 375 (peptide)
peptide: SGLAPTVSDS
B27: SEQ ID NO 373 (peptide)
peptide: SGCWTYLRGGCSVT
B28: SEQ ID NO 374 (peptide)
peptide: SGTPEMPAML
B29: SEQ ID NO 376 (peptide)
peptide: SGDTRSQLSH
B30: SEQ ID NO 371 (peptide)
peptide: SGACLNHFVSGNMIRC
B31: SEQ ID NO 378 (peptide)
peptide: SGVCSDHYIGGKEVRC

Target: T1, PCSK9 (proprotein convertase subtilisin/kexin type 9), His-tagged, full-length (human, UniProt Q8NBP7 31-692)
T1 construct: Captured by the His tag (SPR Methods 1 and 2), amine-coupled (Method 3), or His-tagged in TR-FRET; also called His-PCSK9
T1 sequence (Q8NBP7 31-692 limits assumed): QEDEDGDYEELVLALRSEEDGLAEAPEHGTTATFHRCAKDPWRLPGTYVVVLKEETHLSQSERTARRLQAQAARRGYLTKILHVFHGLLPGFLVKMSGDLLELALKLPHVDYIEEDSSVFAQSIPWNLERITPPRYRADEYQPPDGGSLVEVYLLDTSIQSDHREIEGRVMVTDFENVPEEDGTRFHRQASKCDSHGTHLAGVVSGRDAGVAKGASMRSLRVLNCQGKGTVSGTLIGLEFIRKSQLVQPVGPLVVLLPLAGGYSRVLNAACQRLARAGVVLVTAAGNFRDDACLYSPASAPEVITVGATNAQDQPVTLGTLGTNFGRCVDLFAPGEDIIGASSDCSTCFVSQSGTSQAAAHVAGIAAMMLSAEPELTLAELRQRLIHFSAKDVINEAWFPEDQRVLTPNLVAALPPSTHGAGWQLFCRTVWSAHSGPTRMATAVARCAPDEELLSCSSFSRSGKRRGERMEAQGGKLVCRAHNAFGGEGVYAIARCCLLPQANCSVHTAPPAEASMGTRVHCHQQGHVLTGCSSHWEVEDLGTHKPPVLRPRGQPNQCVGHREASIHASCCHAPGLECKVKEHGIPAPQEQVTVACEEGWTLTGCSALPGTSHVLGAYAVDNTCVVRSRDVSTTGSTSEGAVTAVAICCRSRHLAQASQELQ
Test: TR-FRET competition; competitor EGF(A)-Fc binding to His-PCSK9

B1 and B2 cannot be ordered by IC50: > 50 µM for the first, > 50 µM for the second.

B3 and B4 cannot be ordered by IC50: > 50 µM for the first, > 50 µM for the second.

B5 and B6 cannot be ordered by IC50: > 50 µM for the first, > 50 µM for the second.

B7 and B8 cannot be ordered by IC50: > 50 µM for the first, > 50 µM for the second.

B9 and B10 cannot be ordered by IC50: > 50 µM for the first, > 50 µM for the second.

B11 and B12 cannot be ordered by IC50: > 50 µM for the first, > 50 µM for the second.

Target: T2, His-tagged, full-length PCSK9 (human, UniProt Q8NBP7 31-692)
T2 construct: secreted PCSK9 is autocatalytically cleaved into prodomain and catalytic domain + CRD (from S153), which stay associated; also called His-PCSK9; proprotein convertase subtilisin/kexin type 9; not shown: His tag
T2 sequence (Q8NBP7 31-692 limits assumed): as above
Test: TR-FRET competition (PCSK9/EGF(A) assay); competitor EGF(A)-Fc;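 further: proximity signal from anti-His APC on PCSK9 paired with anti-Fc europium on the Fc ligand, read as normalized TR-FRET ratio across compound dilutions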

First: B13
Second: B14
The IC50 of the first is lower: 37.6 µM for the first, > 50 µM for the second.

Target: T3, PCSK9Δhelix (human, UniProt Q8NBP7 31-152; Q8NBP7 168-692)
T3 construct: Made by TEV cleavage of human PCSK9 M1-Q692 with an engineered TEV site; The new N-terminus of the catalytic domain is S-A168; also called His-PCSK9Δhelix; PCSK9 lacking the P' helix
T3 sequence (Q8NBP7 31-152, stated change not applied, chain 1 of 2): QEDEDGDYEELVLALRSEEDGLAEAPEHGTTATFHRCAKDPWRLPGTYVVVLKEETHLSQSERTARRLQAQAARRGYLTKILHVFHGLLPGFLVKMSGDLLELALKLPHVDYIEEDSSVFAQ
T3 sequence (Q8NBP7 other isoform, or with tags, fused parts or gaps mutant, chain 2 of 2): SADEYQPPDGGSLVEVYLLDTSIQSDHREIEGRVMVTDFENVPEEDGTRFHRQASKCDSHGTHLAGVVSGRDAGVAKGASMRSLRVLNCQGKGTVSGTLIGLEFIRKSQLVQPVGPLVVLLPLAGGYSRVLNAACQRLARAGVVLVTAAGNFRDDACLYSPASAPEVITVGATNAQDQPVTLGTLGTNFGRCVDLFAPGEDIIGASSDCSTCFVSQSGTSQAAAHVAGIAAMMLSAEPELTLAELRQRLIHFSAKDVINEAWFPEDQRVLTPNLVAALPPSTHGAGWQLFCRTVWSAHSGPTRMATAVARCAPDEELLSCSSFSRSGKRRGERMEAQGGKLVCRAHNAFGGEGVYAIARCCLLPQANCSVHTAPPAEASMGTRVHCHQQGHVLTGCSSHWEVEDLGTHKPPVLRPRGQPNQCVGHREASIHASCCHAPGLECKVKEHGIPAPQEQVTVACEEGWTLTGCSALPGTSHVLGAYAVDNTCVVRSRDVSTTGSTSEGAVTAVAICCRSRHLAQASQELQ
Test: TR-FRET competition; competitor Ab20 binding to His-PCSK9Δhelix;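 further: readout is anti-His-APC on PCSK9 with anti-Fc-europium on the Fc-tagged ligand, compound incubated 30 min, normalized signal ratio fitted by four-parameter logistic regression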

Compared with B3, B4 is 3.2-fold higher in IC50: 4.8 µM for the first, 15.4 µM for the second. The first is the more potent here.

Compared with B5, B6 is 2.1-fold lower in IC50: 17.1 µM for the first, 8.19 µM for the second.

Going from B7 to B8, the IC50 rises from 49.5 µM to > 49.5 µM.

Compared with B9, B10 is 7.2-fold lower in IC50: 49.5 µM for the first, 6.9 µM for the second. The second is the more potent here.

Compared with B11, B12 is 1.7-fold higher in IC50: 28.5 µM for the first, 49.5 µM for the second. The first is the more potent here.

Target: T4, PCSK9Δhelix (human, Chemically biotinylated in the phage ELISAs; the site is not given.)
T4 construct: construct M1-Q692 with engineered TEV site, cleaved by TEV; also called His-PCSK9Δhelix; open groove PCSK9Δhelix
T4 sequence (prodomain, as listed by the source mutant limits assumed, chain 1 of 2): as the sequence (Q8NBP7 31-152, stated change not applied, chain 1 of 2) above
T4 sequence (chain, as listed by the source mutant limits assumed, chain 2 of 2): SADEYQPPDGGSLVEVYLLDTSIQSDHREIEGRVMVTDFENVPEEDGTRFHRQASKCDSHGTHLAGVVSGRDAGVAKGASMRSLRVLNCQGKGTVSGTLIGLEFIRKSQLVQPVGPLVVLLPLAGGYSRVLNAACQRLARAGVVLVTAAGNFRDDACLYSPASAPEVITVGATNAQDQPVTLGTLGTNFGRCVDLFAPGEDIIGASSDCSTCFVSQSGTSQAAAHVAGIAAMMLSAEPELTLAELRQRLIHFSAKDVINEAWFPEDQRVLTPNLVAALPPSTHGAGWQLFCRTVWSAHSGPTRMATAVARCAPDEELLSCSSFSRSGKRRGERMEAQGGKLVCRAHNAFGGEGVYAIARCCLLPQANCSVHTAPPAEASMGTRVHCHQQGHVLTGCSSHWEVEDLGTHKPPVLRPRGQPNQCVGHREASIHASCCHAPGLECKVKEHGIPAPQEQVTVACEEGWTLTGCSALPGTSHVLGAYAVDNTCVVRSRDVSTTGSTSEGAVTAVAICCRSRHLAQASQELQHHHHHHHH
Test: phage spot ELISA

Compared with B15, B16 is higher in ELISA: 1.64 for the first, 1.75 for the second.

First: B17
Second: B18
The ELISA of the first is higher: 0.665 for the first, 0.638 for the second.

First: B19
Second: B20
The ELISA of the first is higher: 1.04 for the first, 0.375 for the second.

First: B21
Second: B22
The ELISA of the first is higher: 1.01 for the first, 0.601 for the second.

First: B23
Second: B24
The ELISA of the first is higher: 1.64 for the first, 0.461 for the second.

Compared with B25, B26 is higher in ELISA: 0.378 for the first, 0.55 for the second.

Going from B27 to B28, the ELISA rises from 0.569 to 2.25.

Compared with B29, B30 is lower in ELISA: 1.24 for the first, 0.649 for the second.

Going from B15 to B16, the s/n falls from 7.52 to 4.17.

Compared with B17, B18 is lower in s/n: 7.07 for the first, 5.5 for the second.

Going from B19 to B20, the s/n falls from 7.68 to 3.44.

Compared with B21, B22 is lower in s/n: 10.2 for the first, 5.2 for the second.

First: B23
Second: B24
The s/n of the first is higher: 9.01 for the first, 3.71 for the second.

First: B25
Second: B26
The s/n of the first is lower: 3.37 for the first, 4.33 for the second.

Compared with B27, B28 is higher in s/n: 5.37 for the first, 8.06 for the second.

Going from B29 to B30, the s/n falls from 11.3 to 5.55.

Target: T5, proprotein convertase subtilisin/kexin type 9 (PCSK9) (human, UniProt Q8NBP7 31-692)
T5 construct: His-tagged full-length PCSK9 in TR-FRET and SPR, biotinylated in phage ELISA; secreted protein is autoprocessed (prodomain plus catalytic/CRD chain starting at S153); also called rec.PCSK9; His-PCSK9
T5 sequence (Q8NBP7 other isoform, or with tags, fused parts or gaps limits assumed): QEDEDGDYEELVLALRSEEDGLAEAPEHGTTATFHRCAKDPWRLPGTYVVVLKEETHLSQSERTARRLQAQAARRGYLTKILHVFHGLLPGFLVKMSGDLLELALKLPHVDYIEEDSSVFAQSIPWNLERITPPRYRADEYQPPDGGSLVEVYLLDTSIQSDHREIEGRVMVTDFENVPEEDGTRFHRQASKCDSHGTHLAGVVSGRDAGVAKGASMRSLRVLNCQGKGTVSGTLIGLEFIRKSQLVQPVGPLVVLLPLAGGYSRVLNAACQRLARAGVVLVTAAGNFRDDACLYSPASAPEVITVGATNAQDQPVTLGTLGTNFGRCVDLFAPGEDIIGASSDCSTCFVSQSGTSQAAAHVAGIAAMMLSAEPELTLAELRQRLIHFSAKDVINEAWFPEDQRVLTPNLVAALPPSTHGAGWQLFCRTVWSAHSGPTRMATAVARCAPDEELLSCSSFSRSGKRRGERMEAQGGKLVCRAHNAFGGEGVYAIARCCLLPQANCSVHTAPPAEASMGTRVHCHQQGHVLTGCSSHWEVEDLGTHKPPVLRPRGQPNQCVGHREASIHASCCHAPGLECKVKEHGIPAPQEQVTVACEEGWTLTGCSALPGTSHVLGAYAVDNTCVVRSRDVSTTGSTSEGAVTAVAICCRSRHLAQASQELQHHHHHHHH
Test: phage spot ELISA

Going from B15 to B16, the ELISA rises from 2.49 to 2.87.

Going from B17 to B18, the ELISA falls from 0.591 to 0.447.

Compared with B19, B20 is lower in ELISA: 1.09 for the first, 0.355 for the second.

Compared with B21, B22 is lower in ELISA: 0.893 for the first, 0.609 for the second.

Going from B23 to B24, the ELISA falls from 1.41 to 0.458.

First: B25
Second: B26
The ELISA of the first is higher: 0.373 for the first, 0.119 for the second.

Compared with B27, B28 is higher in ELISA: 0.487 for the first, 3.01 for the second.

First: B29
Second: B31
The ELISA of the first is higher: 2.57 for the first, 1.12 for the second.

With B30 the ELISA was 0.607.

Compared with B15, B16 is lower in s/n: 15.5 for the first, 11.1 for the second.

Compared with B17, B18 is lower in s/n: 6.42 for the first, 3.85 for the second.

First: B19
Second: B20
The s/n of the first is higher: 5.15 for the first, 3.1 for the second.

Compared with B21, B22 is lower in s/n: 8.5 for the first, 1.47 for the second.

Going from B23 to B24, the s/n falls from 5.32 to 1.45.

First: B25
Second: B26
The s/n of the first is higher: 3.32 for the first, 1.23 for the second.

Going from B27 to B28, the s/n rises from 4.39 to 5.74.

Compared with B29, B31 is lower in s/n: 11.9 for the first, 6.19 for the second.

Work on B30 yielded a s/n of 5.19.

Target: T6, His-tagged PCSK9Δhelix (human, UniProt Q8NBP7 31-152; Q8NBP7 168-692)
T6 construct: Human PCSK9 M1-Q692 with an engineered TEV site, cut by TEV protease; new N-terminus of the catalytic domain is S-A168; also called His-PCSK9Δhelix; not shown: His tag
T6 sequence (Q8NBP7 31-152, stated change not applied, chain 1 of 2): as the sequence (Q8NBP7 31-152, stated change not applied, chain 1 of 2) above
T6 sequence (Q8NBP7 other isoform, or with tags, fused parts or gaps mutant, chain 2 of 2): as the sequence (Q8NBP7 other isoform, or with tags, fused parts or gaps mutant, chain 2 of 2) above
Test: TR-FRET competition (PCSK9Δhelix/Ab20 assay); competitor Ab20

Going from B13 to B14, the IC50 rises from 3.6 µM to 37.5 µM (10-fold). The first is the more potent here.
